Source: patent US9168297B2, “Regulation of skin pigmentation by neuregulin-1 (NRG-1)” (The United States of America, as Represented by the …, priority 2010, dated 2015)

How the values were obtained:
Assay type in all cases: cell-based, human
ERBB4 = ERBB4 protein level by western blotting in melanocytes; settings: HEM-LP and HEM-DP, NRG-1 50 ng/ml, 5 days
Method: (§1) FIGS. 7A and 7B are digital images illustrating expression of ERBBs after NRG-1 treatment. FIG. 7A) HEM-LP and HEM-DP melanocytes were treated with or without NRG-1 (50 ng/ml) for 5 days, and levels of ERBB2, ERBB3 or ERBB4 were detected by western blotting. Results shown are representative of three studies. FIG. 7B) Expression of ERBB2 was examined in HEM-LP and in HEM-DP melanocytes after 1 or 9 days or treatment with NRG-1 compared to vehicle-treated controls; the results are representative of two independent studies.
(§2) Fibroblast cultures in 100-mm dishes were solubilized in appropriate volumes of M-PER mammalian protein extraction reagent (Pierce Biotechnology, Rockford, Ill.) containing a Protease Inhibitor mixture (Roche, Mannheim, Germany) and phosphatase inhibitors. The protein concentration of each extract was measured using a BCA protein assay kit (Pierce, Rockford, Ill.). Cell extracts (20 μg) were separated on 8-16% gradient SDS polyacrylamide gels (Invitrogen, Carlsbad, Calif.), after which proteins were transferred to PVDF membranes (Invitrogen, Carlsbad, Calif.). […] Antigen-antibody complexes were detected using an ECL-plus Western blotting detection system (GE Healthcare). […]

HEM-LP melanocytes = test: Proliferation of cultured melanocytes, total cell numbers counted; settings: NRG-1 50 ng/ml, as early as day 1 until confluent, vs control
Method: (§3) FIGS. 5A-5D illustrate the effect of NRG-1 on the proliferation of human melanocytes in culture. FIG. 5A) Lightly-pigmented (HEM-LP) and FIG. 5B) darkly-pigmented (HEM-DP) melanocytes were treated with or without NRG-1 (50 ng/ml) for 1, 3, 5 or 9 days in 10 cm culture dishes and total cell numbers were counted. Results are the averages of three studies±SD. FIG. 5C) Phosphorylated-Akt levels were detected by western blotting for HEM-LP and HEM-DP melanocytes treated with NRG-1 (50 ng/ml) for 5 days compared to vehicle treated controls; GAPDH is used as a loading control. FIG. 5D) HEM-DP melanocytes were treated with NRG-1 (50 ng/ml) for 1, 3 or 5 days and p-Akt levels were detected by western blotting compared to vehicle treated controls; GAPDH is used as a loading control. Results shown are representative of three studies; statistically significant differences are indicated.
(§4) Human neonatal epidermal melanocytes, lightly and darkly pigmented (HEM-LP and HEM-DP, respectively) were obtained from Cascade Biologics (Portland, Oreg.) and were cultured in melanocyte growth medium (MGM) consisting of Medium 254 and human melanocyte growth supplement (both from Cascade Biologics) at 37° C. under 5% CO2. Melanocytes from the third to ninth passage were used in these studies. […]

HEM-DP melanocytes = test: as above; settings: NRG-1 50 ng/ml, as early as day 1 until confluent, vs control
Method: as §3, §4

ERBB3 = ERBB3 protein level by western blotting in melanocytes; settings: NRG-1 50 ng/ml, 5 days
Method: as §1, §2

phospho-Akt (Ser473) = test: Phosphorylated-Akt levels by western blotting in melanocytes; settings: NRG-1 50 ng/ml
Method: as §3
Fibroblast cultures in 100-mm dishes were solubilized in appropriate volumes of M-PER mammalian protein extraction reagent (Pierce Biotechnology, Rockford, Ill.) containing a Protease Inhibitor mixture (Roche, Mannheim, Germany) and phosphatase inhibitors. The protein concentration of each extract was measured using a BCA protein assay kit (Pierce, Rockford, Ill.). Cell extracts (20 μg) were separated on 8-16% gradient SDS polyacrylamide gels (Invitrogen, Carlsbad, Calif.), after which proteins were transferred to PVDF membranes (Invitrogen, Carlsbad, Calif.). Membranes were blocked for 1 hour in PBS or Tris buffered saline (TBS) containing 0.1% Tween 20 and 5% (w/v) nonfat dry milk powder and were incubated overnight at 4° C. with the primary antibody in PBS containing 0.1% Tween 20 and 2.5% (w/v) nonfat dry milk powder or in 0.1% Tween-TBS with 5% BSA, depending on the antibody. The following primary antibodies were used: anti-human DKK-1 (0.2 μg/ml), anti-human DKK-3 (0.1 μg/ml), anti-human bFGF (0.1 μg/ml), anti-human SCF (0.1 μg/ml), anti-human mouse monoclonal ERBB3 (1 μg/ml) and anti-human mouse monoclonal ERBB4 (2 μg/ml) antibodies from R&D Systems, neuregulin-1α/β1/2 (C-20) (1:500) and GAPDH (FL-335) (1:10,000) antibodies from Santa Cruz Biotechnology, ERBB2 rabbit monoclonal (1:1000) and phospho-Akt (Ser473) (1:1000) antibodies from Cell Signaling Technology. Membranes were then incubated with an HRP-linked anti-rabbit antibody (GE Healthcare) at 1:10,000 dilution or with an anti-goat antibody (DAKO) at 1:2,000 dilution at room temperature for 1 hour. Antigen-antibody complexes were detected using an ECL-plus Western blotting detection system (GE Healthcare). Each study was performed at least in triplicate. […]

B1: NRG-1: commercially available recombinant human neuregulin-1 (rhNRG-1-β1, R&D Systems), SEQ ID NO: 11 (protein)
chain: TSHLVKCAEKEKTFCVNGGECFMVKDLSNPSRYLCKCPNEFTGDRCQNYVMASFYKHLGIEFMEAEELYQK
Levels of ERBB4 expression (ERBB4): did not change | Cell numbers (HEM-LP melanocytes): significantly higher | Cell numbers (HEM-DP melanocytes): significantly higher | ERBB3 expression level (ERBB3; HEM-DP): not affected | ERBB3 expression level (ERBB3; HEM-LP): no detectable change | Levels of p-Akt (phospho-Akt (Ser473); HEM-DP, day 1, low confluency, vs control): equally high | Levels of p-Akt, time course (phospho-Akt (Ser473); HEM-DP, day 3 through day 5, control decreased by day 3): maintained higher levels of p-Akt through day 5 | Levels of p-Akt (phospho-Akt (Ser473); HEM-DP, day 5, vs control): significantly higher | Levels of p-Akt (phospho-Akt (Ser473); HEM-LP, day 5, vs control): significantly higher
